Results: publication PMC3985488
Numbering of substitutions follows the chain as printed.

Columns and labels:
Dpo4 Y274W = target: T1, Dpo4 Y274W (Sulfolobus solfataricus, UniProt Q97W02 1-352, C31S;Y274W); experiment: steady-state Trp fluorescence
T1 sequence: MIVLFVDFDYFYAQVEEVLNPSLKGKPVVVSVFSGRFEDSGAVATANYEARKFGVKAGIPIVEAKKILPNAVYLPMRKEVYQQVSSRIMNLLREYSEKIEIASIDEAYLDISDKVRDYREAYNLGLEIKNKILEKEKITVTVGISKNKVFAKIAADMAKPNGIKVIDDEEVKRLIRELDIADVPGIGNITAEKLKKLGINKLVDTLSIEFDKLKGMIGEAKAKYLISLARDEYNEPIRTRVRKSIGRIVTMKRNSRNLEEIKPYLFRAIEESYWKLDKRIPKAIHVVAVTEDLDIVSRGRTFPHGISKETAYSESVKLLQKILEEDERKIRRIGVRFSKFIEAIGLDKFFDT

Dpo4 Y108W-K329C-CPM = target: T2, Dpo4 Y108W-K329C-CPM (Sulfolobus solfataricus, UniProt Q97W02 1-352, C31S;Y108W;K329C); experiment: stopped-flow FRET
T2 sequence: T1 sequence with Y108W, W274Y, K329C

Dpo4 Y108W = target: T3, Dpo4 Y108W (Sulfolobus solfataricus, UniProt Q97W02 1-352, C31S;Y108W); experiment: steady-state Trp fluorescence
T3 sequence: T1 sequence with Y108W, W274Y

Measured: binding result

B1: DNAOH 21/30-mer (dsDNA)
DNA 1: CGAGCCGTCGCATCCTACCGC
DNA 2: GATGCTGCAGCGGTAGGATGCGACGGCTCG
binds: all assays above
